Experiments:
[1] = target: human PI16 (Peptidase inhibitor 16) expressed on the cell surface (human) (UniProt Q6UXB8); test: flow cytometry, ILT3Fc on PI16-transfected 3A9 cells
[2] = target: human PI16 (Peptidase inhibitor 16) expressed on the cell surface (human) (UniProt Q6UXB8); test: flow cytometry, ILT3Fc cross-linked with anti-human Fc antibody on PI16-transfected 3A9 cells
[3] = target: ILT3-CD3z fusion protein on reporter cells (human); test: cell-based or functional assay
ILT3-CD3z fusion protein on reporter cells (human), sequence (Q8NHJ6 22-259): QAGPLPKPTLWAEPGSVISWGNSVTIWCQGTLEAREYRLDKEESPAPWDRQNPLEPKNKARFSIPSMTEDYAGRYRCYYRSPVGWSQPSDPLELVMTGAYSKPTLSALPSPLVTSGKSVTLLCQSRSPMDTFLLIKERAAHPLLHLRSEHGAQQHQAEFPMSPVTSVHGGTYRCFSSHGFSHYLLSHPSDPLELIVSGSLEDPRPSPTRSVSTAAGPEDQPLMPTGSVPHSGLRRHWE

Row | Substance | percent of cells stained [1] [%] | percent of cells stained [2] [%] | luciferase activity of ILT3 reporter cells [3] [log]
1 | ILT3Fc (Fc fusion) | 8.3 | 23 | 
2 | human PI16 (Peptidase inhibitor 16) expressed on the cell surface (from UniProt Q6UXB8 28-463) (ligand) |  |  | 2

— patent US20190241655A1
